The record followed here is patent publication EP4491631A1 (Anaveon AG, dated 2025).

Residue numbers refer to the chain shown, from its start.

First the molecules themselves.
T1: IL-2R CD122-CD132 on Jurkat-PD1+ CD122+ cells (UniProt P14784 27-551; P31785 23-369)
T1 sequence (looked up) 1: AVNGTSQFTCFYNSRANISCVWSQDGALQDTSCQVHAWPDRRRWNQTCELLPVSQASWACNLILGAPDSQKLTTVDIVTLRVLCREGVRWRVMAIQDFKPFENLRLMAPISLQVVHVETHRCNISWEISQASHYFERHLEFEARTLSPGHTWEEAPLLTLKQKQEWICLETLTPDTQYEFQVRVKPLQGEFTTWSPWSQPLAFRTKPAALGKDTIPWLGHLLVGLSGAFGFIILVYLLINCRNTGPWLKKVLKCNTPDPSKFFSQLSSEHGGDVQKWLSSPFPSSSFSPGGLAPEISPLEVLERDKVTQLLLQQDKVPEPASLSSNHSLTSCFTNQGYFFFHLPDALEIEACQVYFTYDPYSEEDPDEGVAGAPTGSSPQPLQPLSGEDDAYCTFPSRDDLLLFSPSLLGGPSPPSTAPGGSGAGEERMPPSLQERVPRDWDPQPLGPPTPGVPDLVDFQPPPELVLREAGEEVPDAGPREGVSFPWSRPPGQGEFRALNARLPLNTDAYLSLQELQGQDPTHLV
T1 sequence (looked up) 2: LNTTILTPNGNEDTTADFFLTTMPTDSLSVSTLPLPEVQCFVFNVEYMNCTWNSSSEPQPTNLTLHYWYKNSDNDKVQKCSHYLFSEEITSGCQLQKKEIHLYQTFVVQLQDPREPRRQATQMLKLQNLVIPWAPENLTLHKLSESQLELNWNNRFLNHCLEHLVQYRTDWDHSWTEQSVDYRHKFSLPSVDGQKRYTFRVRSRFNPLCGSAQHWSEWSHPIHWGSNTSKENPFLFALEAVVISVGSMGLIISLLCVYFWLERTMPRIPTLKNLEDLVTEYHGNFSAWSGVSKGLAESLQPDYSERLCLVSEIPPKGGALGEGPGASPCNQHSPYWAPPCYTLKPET

B1: YPW986 (bispecific antibody)
chain 1: EVQLLESGGGLVQPGGSLRLSCAASGFTFSINAMTWVRQAPGKGLEWVSTISGSGFSTYYADSLKGRFTISRDNSKNTLYLQMNSLRAEDTAVYYCAKEVYGDYWGQGTLVTVSSASVAAPSVFIFPPSDEQLKSGTASVVCLLNNFYPREAKVQWKVDNALQSGNSQESVTEQDSKDSTYSLSSTLTLSKADYEKHKVYACEVTHQGLSSPVTKSFNRGECDKTHTCPPCPAPEAAGGPSVFLFPPKPKDTLMISRTPEVTCVVVDVSHEDPEVKFNWYVDGVEVHNAKTKPREEQYNSTYRVVSVLTVLHQDWLNGKEYKCKVSNKALAAPIEKTISKAKGQPREPQVYTLPPSREEMTKNQVSLTCLVKGFYPSDIAVEWESNGQPENNYKTTPPVLDSDGSFFLTSKLTVDKSRWQQGNVFSCSVMHEALHNHYTQKSLSLSPGK
chain 2: RSVLTQPPSASGTPGQRVSISCSGASSNIGSQSVFWYQQLPGTAPKLLIYSNNQRPSGVPDRFSGSKSGTSASLAISGLRSEDEADYYCAAWDDSLSIWVFGGGTKLTVLSSASTKGPSVFPLAPSSKSTSGGTAALGCLVKDYFPEPVTVSWNSGALTSGVHTFPAVLQSSGLYSLSSVVTVPSSSLGTQTYICNVNHKPSNTKVDKRVEPKSC
chain 3: EVQLVQSGAEVKKPGESLKISCKGSGYAFTNYLIEWVRQMPGKGLEWMGVINPGSGGTNYNEKFKGQVTISADKSISTAYLQWSSLKASDTAMYYCARWRGEGYYAYFDVWGQGTTVTVSSASTKGPSVFPLAPSSKSTSGGTAALGCLVKDYFPEPVTVSWNSGALTSGVHTFPAVLQSSGLYSLSSVVTVPSSSLGTQTYICNVNHKPSNTKVDKRVEPKSCDKTHTCPPCPAPEAAGGPSVFLFPPKPKDTLMISRTPEVTCVVVDVSHEDPEVKFNWYVDGVEVHNAKTKPREEQYNSTYRVVSVLTVLHQDWLNGKEYKCKVSNKALAAPIEKTISKAKGQPREPQVYTLPPSREEMTKNQVSLYCLVKGFYPSDIAVEWESNGQPENNYKTTPPVLDSDGSFFLYSKLTVDKSRWQQGNVFSCSVMHEALHNHYTQKSLSLSPGK
chain 4: not shown
B2: RIB426 (bispecific antibody, human IgG1, kappa, L234A L235A)
chain 1: QVQLVQSGAEVKKPGASVKVSCKASGYTFTNFYIHWVRQAPGQGLEWMGRIYPNYGITAYNQKFKDRVTMTVDTSTSTAYMELRSLRSDDTAVYYCARGYSYAMDYWGQGTTVTVSSASVAAPSVFIFPPSDEQLKSGTASVVCLLNNFYPREAKVQWKVDNALQSGNSQESVTEQDSKDSTYSLSSTLTLSKADYEKHKVYACEVTHQGLSSPVTKSFNRGECDKTHTCPPCPAPEAAGGPSVFLFPPKPKDTLMISRTPEVTCVVVDVSHEDPEVKFNWYVDGVEVHNAKTKPREEQYNSTYRVVSVLTVLHQDWLNGKEYKCKVSNKALAAPIEKTISKAKGQPREPQVYTLPPSREEMTKNQVSLTCLVKGFYPSDIAVEWESNGQPENNYKTTPPVLDSDGSFFLTSKLTVDKSRWQQGNVFSCSVMHEALHNHYTQKSLSLSPGK
chain 2: DIQMTQSPSSVSASVGDRVTITCSASQGISGDLNWYQQKPGKAPKLLIYHTSQRHSDVPSRFSGSGSGTDFTLTISSLQPEDFATYYCQGYSKDLLTFGGGTKLEIKSSASTKGPSVFPLAPSSKSTSGGTAALGCLVKDYFPEPVTVSWNSGALTSGVHTFPAVLQSSGLYSLSSVVTVPSSSLGTQTYICNVNHKPSNTKVDKRVEPKSC
chain 3: B1 chain 3
chain 4: not shown
B3: QAB373 (bispecific antibody, human IgG1, kappa, L234A L235A)
chain 1: B2 chain 1 with R50S
chain 2: B2 chain 2 with R54L
chain 3: B1 chain 3
chain 4: not shown
B4: PXU588 (bispecific antibody)
chain 1: B1 chain 1
chain 2: B1 chain 2 with Q32S
chain 3: B1 chain 3
chain 4: not shown
B5: MDS446 (bispecific antibody, human IgG1, kappa, L234A L235A)
chain 1: QVQLVQSGAEVKKPGASVKVSCKASGYTFTNFYIHWVRQAPGQGLEWMGSIYPNYGITAYNQKFKDRVTMTVDTSTSTAYMELRSLRSDDTAVYYCARGYSYAMDYWGQGTTVTVSSASTKGPSVFPLAPSSKSTSGGTAALGCLVKDYFPEPVTVSWNSGALTSGVHTFPAVLQSSGLYSLSSVVTVPSSSLGTQTYICNVNHKPSNTKVDKRVEPKSCDKTHTCPPCPAPEAAGGPSVFLFPPKPKDTLMISRTPEVTCVVVDVSHEDPEVKFNWYVDGVEVHNAKTKPREEQYNSTYRVVSVLTVLHQDWLNGKEYKCKVSNKALAAPIEKTISKAKGQPREPQVYTLPPSREEMTKNQVSLTCLVKGFYPSDIAVEWESNGQPENNYKTTPPVLDSDGSFFLTSKLTVDKSRWQQGNVFSCSVMHEALHNHYTQKSLSLSPGK
chain 2: DIQMTQSPSSVSASVGDRVTITCSASQGISGDLNWYQQKPGKAPKLLIYHTSQLHSDVPSRFSGSGSGTDFTLTISSLQPEDFATYYCQGYSKDLLTFGGGTKLEIKRTVAAPSVFIFPPSDEQLKSGTASVVCLLNNFYPREAKVQWKVDNALQSGNSQESVTEQDSKDSTYSLSSTLTLSKADYEKHKVYACEVTHQGLSSPVTKSFNRGEC
chain 3: AIRLTQSPSSFSASTGDRVTITCKASQSVDYGGGNFHLRPRDLISNINVIVLELKGSETTFMCEYADETATIVEFLNRWITFSQSIISTLTPTSSSTKKTQLQLEHLLLDLQMILNGINNYKNPKLTRMLTFKFYMPKKATELKHLQCLEEELKPLEEVLNLAQSKGGGGDSYMNWYQQKPGKAPKLLIYAASNLESGVPSRFSGSGSGTDFTLTISSLQSEDFATYYCQQSNEDPYTFGGGTKVEIKGGGGSGGGGSGGGGSEVQLVQSGAEVKKPGESLKISCKGSGYAFTNYLIEWVRQMPGKGLEWMGVINPGSGGTNYNEKFKGQVTISADKSISTAYLQWSSLKASDTAMYYCARWRGEGYYAYFDVWGQGTTVTVSSGGGGSGGGGSQVQLVQSGAEVKKPGASVKVSCKASGYTFTNFYIHWVRQAPGQGLEWMGSIYPNYGITAYNQKFKDRVTMTVDTSTSTAYMELRSLRSDDTAVYYCARGYSYAMDYWGQGTTVTVSSASTKGPSVFPLAPSSKSTSGGTAALGCLVKDYFPEPVTVSWNSGALTSGVHTFPAVLQSSGLYSLSSVVTVPSSSLGTQTYICNVNHKPSNTKVDKRVEPKSCDKTHTCPPCPAPEAAGGPSVFLFPPKPKDTLMISRTPEVTCVVVDVSHEDPEVKFNWYVDGVEVHNAKTKPREEQYNSTYRVVSVLTVLHQDWLNGKEYKCKVSNKALAAPIEKTISKAKGQPREPQVYTLPPSREEMTKNQVSLYCLVKGFYPSDIAVEWESNGQPENNYKTTPPVLDSDGSFFLYSKLTVDKSRWQQGNVFSCSVMHEALHNHYTQKSLSLSPGK
B6: TMU471 (bispecific antibody, human IgG1, kappa, L234A L235A)
chain 1: B5 chain 1 with S50R
chain 2: B5 chain 2 with L54R
chain 3: B5 chain 3 with S444R
B7: JLI141 (bispecific antibody, human IgG1, lambda, L234A L235A)
chain 1: EVQLLESGGGLVQPGGSLRLSCAASGFTFSINAMTWVRQAPGKGLEWVSTISGSGFSTYYADSLKGRFTISRDNSKNTLYLQMNSLRAEDTAVYYCAKEVYGDYWGQGTLVTVSSASTKGPSVFPLAPSSKSTSGGTAALGCLVKDYFPEPVTVSWNSGALTSGVHTFPAVLQSSGLYSLSSVVTVPSSSLGTQTYICNVNHKPSNTKVDKRVEPKSCDKTHTCPPCPAPEAAGGPSVFLFPPKPKDTLMISRTPEVTCVVVDVSHEDPEVKFNWYVDGVEVHNAKTKPREEQYNSTYRVVSVLTVLHQDWLNGKEYKCKVSNKALAAPIEKTISKAKGQPREPQVYTLPPSREEMTKNQVSLTCLVKGFYPSDIAVEWESNGQPENNYKTTPPVLDSDGSFFLTSKLTVDKSRWQQGNVFSCSVMHEALHNHYTQKSLSLSPGK
chain 2: not shown
chain 3: AIRLTQSPSSFSASTGDRVTITCKASQSVDYGGGNFHLRPRDLISNINVIVLELKGSETTFMCEYADETATIVEFLNRWITFSQSIISTLTPTSSSTKKTQLQLEHLLLDLQMILNGINNYKNPKLTRMLTFKFYMPKKATELKHLQCLEEELKPLEEVLNLAQSKGGGGDSYMNWYQQKPGKAPKLLIYAASNLESGVPSRFSGSGSGTDFTLTISSLQSEDFATYYCQQSNEDPYTFGGGTKVEIKGGGGSGGGGSGGGGSEVQLVQSGAEVKKPGESLKISCKGSGYAFTNYLIEWVRQMPGKGLEWMGVINPGSGGTNYNEKFKGQVTISADKSISTAYLQWSSLKASDTAMYYCARWRGEGYYAYFDVWGQGTTVTVSSGGGGSGGGGSEVQLLESGGGLVQPGGSLRLSCAASGFTFSINAMTWVRQAPGKGLEWVSTISGSGFSTYYADSLKGRFTISRDNSKNTLYLQMNSLRAEDTAVYYCAKEVYGDYWGQGTLVTVSSASTKGPSVFPLAPSSKSTSGGTAALGCLVKDYFPEPVTVSWNSGALTSGVHTFPAVLQSSGLYSLSSVVTVPSSSLGTQTYICNVNHKPSNTKVDKRVEPKSCDKTHTCPPCPAPEAAGGPSVFLFPPKPKDTLMISRTPEVTCVVVDVSHEDPEVKFNWYVDGVEVHNAKTKPREEQYNSTYRVVSVLTVLHQDWLNGKEYKCKVSNKALAAPIEKTISKAKGQPREPQVYTLPPSREEMTKNQVSLYCLVKGFYPSDIAVEWESNGQPENNYKTTPPVLDSDGSFFLYSKLTVDKSRWQQGNVFSCSVMHEALHNHYTQKSLSLSPGK

For the assay, the target named is T1, IL-2R CD122-CD132 on Jurkat-PD1+ CD122+ …. Kind of assay: cell-based or functional assay.
Turning to B1, the “EC50 value for pSTAT5 induction” value amounted to 43.9 nM.

With B2, the “EC50 value for pSTAT5 induction” value is 0.12 nM.

Regarding B3, the “EC50 value for pSTAT5 induction” value is 70 pM.

On to B4, for which the “EC50 value for pSTAT5 induction” value worked out at 5.37 nM.

As for B5, the “EC50 value for pSTAT5 induction” value was 60 pM.

As for B6, the “EC50 value for pSTAT5 induction” value came to 60 pM.

As to B7, the “EC50 value for pSTAT5 induction” value turned out to be 0.2 nM.
